Laboratory results published in publication PMC12952242 (Molecular cell, 2025).

What was measured:
[1] = target: U1 snRNP (lacking the Sm ring), reconstituted (human, UniProt P08621-1 1-216; P09012 1-282; P09234 1-159); experiment: pull-down
[2] = target: U1–70K (SNRNP70) 1–216, recombinant (human, UniProt P08621-1 1-216); experiment: pull-down
Sequence of U1–70K (SNRNP70) 1–216, recombinant (P08621 1-216): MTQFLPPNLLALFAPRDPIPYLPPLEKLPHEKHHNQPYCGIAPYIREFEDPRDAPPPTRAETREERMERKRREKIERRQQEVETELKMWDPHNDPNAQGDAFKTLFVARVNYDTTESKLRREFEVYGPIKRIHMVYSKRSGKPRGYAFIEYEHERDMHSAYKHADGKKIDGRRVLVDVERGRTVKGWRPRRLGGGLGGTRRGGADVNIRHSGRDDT

Sequence of U1 snRNP (lacking the Sm ring), reconstituted (P08621 1-216, chain 1 of 3): as the sequence (P08621 1-216) above
Sequence of U1 snRNP (lacking the Sm ring), reconstituted (P09012 whole entry, chain 2 of 3): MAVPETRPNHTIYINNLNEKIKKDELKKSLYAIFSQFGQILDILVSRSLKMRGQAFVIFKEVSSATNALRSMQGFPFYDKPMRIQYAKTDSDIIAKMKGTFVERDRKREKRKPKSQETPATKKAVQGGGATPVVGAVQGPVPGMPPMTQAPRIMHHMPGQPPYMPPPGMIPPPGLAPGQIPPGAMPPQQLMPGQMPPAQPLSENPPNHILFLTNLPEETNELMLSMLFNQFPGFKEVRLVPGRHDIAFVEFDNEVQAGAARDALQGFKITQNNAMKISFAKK
Sequence of U1 snRNP (lacking the Sm ring), reconstituted (P09234 whole entry, chain 3 of 3): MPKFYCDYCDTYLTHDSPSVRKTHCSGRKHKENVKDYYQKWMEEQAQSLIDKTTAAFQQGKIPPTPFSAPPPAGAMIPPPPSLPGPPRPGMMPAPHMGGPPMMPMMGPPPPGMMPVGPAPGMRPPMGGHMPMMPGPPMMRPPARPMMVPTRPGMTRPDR

B1: ZNF207 full-length, recombinant (natural protein)
chain: not shown
Q: Does B1 bind [1]?
A: binds

B2: ZNF207 1–122 (ZnF+Hel), recombinant (domain or fragment)
chain: not shown
Q: Does B2 bind [2]?
A: binds

Q: Does B2 bind [1]?
A: binds
